Laboratory results published in the Human Domainome abundance scans (Beltran et al. 2025).
± gives the uncertainty stated by the source.

B1: REST corepressor 3, residues 87 to 134; numbered along this chain, Q9P2K3 (parent)
chain: DEWTVEDKVLFEQAFSFHGKSFHRIQQMLPDKTIASLVKYYYSWKKTR

Variants of: B1
Experiment: abundance fitness (aPCA) (normalised: wild type 0, dead -1); higher = more abundant; growth selection in yeast, the domain comes from the species named
Conditions: Homo sapiens

Variant	abundance fitness
DEWTVEDKVLFEQAFSFHGKSFHRIQQMLPDKTIAVLVKYYYSWKKTR	-0.761 ± 0.2
DEWTVEDKVLFEQAFSFHGKSFHRIQQMLPDKTIAGLVKYYYSWKKTR	-0.167 ± 0.093
DEWTVEDKVLFEQAFSFHGKSFHRIQQMLPDKTIAMLVKYYYSWKKTR	-0.288 ± 0.16
DEWTVEDKVLFEQAFSFHGKSFHRIQQMLPDKTIACLVKYYYSWKKTR	-0.008 ± 0.25
DEWTVEDKVLFEQAFSFHGKSFHRIQQMLPDKTIATLVKYYYSWKKTR	-0.347 ± 0.2
DEWTVEDKVLFEQAFSFHGKSFHRIQQMLPDKTIAPLVKYYYSWKKTR	-0.852 ± 0.32
DEWTVEDKVLFEQAFSFHGKSFHRIQQMLPDKTIAQLVKYYYSWKKTR	0.116 ± 0.12
DEWTVEDKVLFEQAFSFHGKSFHRIQQMLPDKTIARLVKYYYSWKKTR	-0.478 ± 0.21
DEWTVEDKVLFEQAFSFHGKSFHRIQQMLPDKTIALLVKYYYSWKKTR	-1.04 ± 0.39
DEWTVEDKVLFEQAFSFHGKSFHRIQQMLPDKTIAKLVKYYYSWKKTR	-0.627 ± 0.37
DEWTVEDKVLFEQAFSFHGKSFHRIQQMLPDKTIADLVKYYYSWKKTR	-0.219 ± 0.4
DEWTVEDKVLFEQAFSFHGKSFHRIQQMLPDKTIAALVKYYYSWKKTR	-0.504 ± 0.2
DEWTVEDKVLFEQAFSFHGKSFHRIQQMLPDKTIAHLVKYYYSWKKTR	-0.241 ± 0.31
DEWTVEDKVLFEQAFSFHGKSFHRIQQMLPDKTIAWLVKYYYSWKKTR	-0.825 ± 0.42
DEWTVEDKVLFEQAFSFHGKSFHRIQQMLPDKTRASLVKYYYSWKKTR	-0.374 ± 0.043
DEWTVEDKVLFEQAFSFHGKSFHRIQQMLPDKTPASLVKYYYSWKKTR	-1.08 ± 0.36
DEWTVEDKVLFEQAFSFHGKSFHRIQQMLPDKTMASLVKYYYSWKKTR	-0.255 ± 0.062
DEWTVEDKVLFEQAFSFHGKSFHRIQQMLPDKTTASLVKYYYSWKKTR	-0.644 ± 0.16
DEWTVEDKVLFEQAFSFHGKSFHRIQQMLPDKTLASLVKYYYSWKKTR	-0.419 ± 0.13
DEWTVEDKVLFEQAFSFHGKSFHRIQQMLPDKTQASLVKYYYSWKKTR	-0.768 ± 0.1
DEWTVEDKVLFEQAFSFHGKSFHRIQQMLPDKTVASLVKYYYSWKKTR	-0.747 ± 0.22
DEWTVEDKVLFEQAFSFHGKSFHRIQQMLPDKTSASLVKYYYSWKKTR	-0.677 ± 0.057

Variant	abundance fitness
DEWTVEDKVLFEQAFSFHGKSFHRIQQMLPDKTYASLVKYYYSWKKTR	-0.508 ± 0.38
DEWTVEDKVLFEQAFSFHGKSFHRIQQMLPDKTNASLVKYYYSWKKTR	-0.267 ± 0.34
DEWTVEDKVLFEQAFSFHGKSFHRIQQMLPDKTKASLVKYYYSWKKTR	-0.67 ± 0.38
DEWTVEDKVLFEQAFSFHGKSFHRIQQMLPDKTIASLAKYYYSWKKTR	-0.182 ± 0.083
DEWTVEDKVLFEQAFSFHGKSFHRIQQMLPDKTIASLCKYYYSWKKTR	-0.647 ± 0.17
DEWTVEDKVLFEQAFSFHGKSFHRIQQMLPDKTIASLEKYYYSWKKTR	-0.12 ± 0.16
DEWTVEDKVLFEQAFSFHGKSFHRIQQMLPDKTIASLLKYYYSWKKTR	-0.123 ± 0.065
DEWTVEDKVLFEQAFSFHGKSFHRIQQMLPDKTIASLHKYYYSWKKTR	-0.723 ± 0.17
DEWTVEDKVLFEQAFSFHGKSFHRIQQMLPDKTIASLRKYYYSWKKTR	-0.116 ± 0.069
DEWTVEDKVLFEQAFSFHGKSFHRIQQMLPDKTIASLTKYYYSWKKTR	-0.266 ± 0.09
DEWTVEDKVLFEQAFSFHGKSFHRIQQMLPDKTIASLKKYYYSWKKTR	0.393 ± 0.08
DEWTVEDKVLFEQAFSFHGKSFHRIQQMLPDKTIASLWKYYYSWKKTR	-0.575 ± 0.15
DEWTVEDKVLFEQAFSFHGKSFHRIQQMLPDKTIASLFKYYYSWKKTR	-0.663 ± 0.14
DEWTVEDKVLFEQAFSFHGKSFHRIQQMLPDKTIASLNKYYYSWKKTR	-0.169 ± 0.13
DEWTVEDKVLFEQAFSFHGKSFHRIQQMLPDKTIASLIKYYYSWKKTR	0.279 ± 0.084
DEWTVEDKVLFEQAFSFHGKSFHRIQQMLPDKTIASLYKYYYSWKKTR	-0.036 ± 0.13
DEWTVEDKVLFEQAFSFHGKSFHRIQQMLPDKTIASLDKYYYSWKKTR	-0.612 ± 0.25
DEWTVEDKVLFEQAFSFHGKSFHRIQQMLPDKTIASLMKYYYSWKKTR	-0.115 ± 0.095
DEWTVEDKVLFEQAFSFHGKSFHRIQQMLPDKTIASLQKYYYSWKKTR	-0.499 ± 0.17
DEWTVEDKVLFEQAFSFHGKSFHRIQQMLPDKTIASLSKYYYSWKKTR	-0.215 ± 0.077
DEWTVEDKVLFEQAFSFHGKSFHRIQQMLPDKTIASLVKYYESWKKTR	0.203 ± 0.084
DEWTVEDKVLFEQAFSFHGKSFHRIQQMLPDKTIASLVKYYDSWKKTR	0.252 ± 0.11

Variant	abundance fitness
DEWTVEDKVLFEQAFSFHGKSFHRIQQMLPDKTIASLVKYYCSWKKTR	-0.132 ± 0.16
DEWTVEDKVLFEQAFSFHGKSFHRIQQMLPDKTIASLVKYYASWKKTR	-0.234 ± 0.073
DEWTVEDKVLFEQAFSFHGKSFHRIQQMLPDKTIASLVEYYYSWKKTR	-0.574 ± 0.2
DEWTVEDKVLFEQAFSFHGKSFHRIQQMLPDKTIASLVLYYYSWKKTR	-0.732 ± 0.14
DEWTVEDKVLFEQAFSFHGKSFHRIQQMLPDKTIASLVPYYYSWKKTR	-0.86 ± 0.25
DEWTVEDKVLFEQAFSFHGKSFHRIQQMLPDKTIASLVNYYYSWKKTR	-0.276 ± 0.27
DEWTVEDKVLFEQAFSFHGKSFHRIQQMLPDKTIASLVAYYYSWKKTR	-0.481 ± 0.18
DEWTVEDKVLFEQAFSFHGKSFHRIQQMLPDKTIASLVTYYYSWKKTR	-0.422 ± 0.23
DEWTVEDKVLFEQAFSFHGKSFHRIQQMLPDKTIASLVCYYYSWKKTR	-0.546 ± 0.28
DEWTVEDKVLFEQAFSFHGKSFHRIQQMLPDKTIASLVVYYYSWKKTR	-0.741 ± 0.27
DEWTVEDKVLFEQAFSFHGKSFHRIQQMLPDKTIASLVYYYYSWKKTR	-0.193 ± 0.2
DEWTVEDKVLFEQAFSFHGKSFHRIQQMLPDKTIASLVSYYYSWKKTR	-0.168 ± 0.062
DEWTVEDKVLFEQAFSFHGKSFHRIQQMLPDKTIASLVDYYYSWKKTR	-0.575 ± 0.45
DEWTVEDKVLFEQAFSFHGKSFHRIQQMLPDKTIASLVWYYYSWKKTR	-0.67 ± 0.38
DEWTVEDKVLFEQAFSFHGKSFHRIQQMLPDKTIASLVGYYYSWKKTR	-0.11 ± 0.064
DEWTVEDKVLFEQAFSFHGKSFHRIQQMLPDKTIASLVMYYYSWKKTR	-0.748 ± 0.2
DEWTVEDKVLFEQAFSFHGKSFHRIQQMLPDKTIASLVHYYYSWKKTR	0.075 ± 0.45
DEWTVEDKVLFEQAFSFHGKSFHRIQQMLPDKTIASLVRYYYSWKKTR	-0.221 ± 0.097
DEWTVEDKVLFEQAFSFHGKSFHRIQQMLPDKTIASLVKRYYSWKKTR	-0.964 ± 0.28
DEWTVEDKVLFEQAFSFHGKSFHRIQQMLPDKTIASLVKPYYSWKKTR	-0.324 ± 0.35
DEWTVEDKVLFEQAFSFHGKSFHRIQQMLPDKTIASLVKGYYSWKKTR	-1.09 ± 0.43
DEWTVEDKVLFEQAFSFHGKSFHRIQQMLPDKTIASLVKVYYSWKKTR	-0.824 ± 0.32

Variant	abundance fitness
DEWTVEDKVLFEQAFSFHGKSFHRIQQMLPDKTIASLVKKYYSWKKTR	-0.346 ± 0.49
DEWTVEDKVLFEQAFSFHGKSFHRIQQMLPDKTIASLVKEYYSWKKTR	-0.318 ± 0.34
DEWTVEDKVLFEQAFSFHGKSFHRIQQMLPDKTIASLVKCYYSWKKTR	-0.674 ± 0.49
DEWTVEDKVLFEQAFSFHGKSFHRIQQMLPDKTIASDVKYYYSWKKTR	-0.465 ± 0.47
DEWTVEDKVLFEQAFSFHGKSFHRIQQMLPDKTIASVVKYYYSWKKTR	-0.618 ± 0.23
DEWTVEDKVLFEQAFSFHGKSFHRIQQMLPDKTIASSVKYYYSWKKTR	-0.773 ± 0.25
DEWTVEDKVLFEQAFSFHGKSFHRIQQMLPDKTIASMVKYYYSWKKTR	-0.711 ± 0.43
DEWTVEDKVLFEQAFSFHGKSFHRIQQMLPDKTIASKVKYYYSWKKTR	-0.714 ± 0.37
DEWTVEDKVLFEQAFSFHGKSFHRIQQMLPDKTIASTVKYYYSWKKTR	-0.542 ± 0.41
DEWTVEDKVLFEQAFSFHGKSFHRIQQMLPDKTIASGVKYYYSWKKTR	-0.835 ± 0.19
DEWTVEDKVLFEQAFSFHGKSFHRIQQMLPDKTIASIVKYYYSWKKTR	-0.35 ± 0.43
DEWTVEDKVLFEQAFSFHGKSFHRIQQMLPDKTIASRVKYYYSWKKTR	-0.885 ± 0.22
DEWTVEDKVLFEQAFSFHGKSFHRIQQMLPDKTIASEVKYYYSWKKTR	-0.628 ± 0.36
DEWTVEDKVLFEQAFSFHGKSFHRIQQMLPDKTIASAVKYYYSWKKTR	-0.673 ± 0.31
DEWTVEDKVLFEQAFSFHGKSFHRIQQMLPDKTIASLVKYVYSWKKTR	-0.657 ± 0.46
DEWTVEDKVLFEQAFSFHGKSFHRIQQMLPDKTIASLVKYKYSWKKTR	-0.398 ± 0.36
DEWTVEDKVLFEQAFSFHGKSFHRIQQMLPDKTIASLVKYAYSWKKTR	-0.817 ± 0.38
DEWTVEDKVLFEQAFSFHGKSFHRIQQMLPDKTIASLVKYRYSWKKTR	-0.654 ± 0.44
DEWTVEDKVLFEQAFSFHGKSFHRIQQMLPDKTIASLVKYHYSWKKTR	-0.52 ± 0.39
DEWTVEDKVLFEQAFSFHGKSFHRIQQMLPDKTIASLVKYGYSWKKTR	-0.836 ± 0.26
DEWTVEDKVLFEQAFSFHGKSFHRIQQMLPDKTIASLVKYWYSWKKTR	-0.574 ± 0.3
DEWTVEDKVLFEQAFSFHGKSFHRIQQMLPDKTIASLVKYFYSWKKTR	-0.644 ± 0.32

Variant	abundance fitness
DEWTVEDKVLFEQAFSFHGKSFHRIQQMLPDKTIASLVKYEYSWKKTR	-0.491 ± 0.41
DEWTVEDKVLFEQAFSFHGKSFHRIQQMLPDKTIASLVKYIYSWKKTR	-0.599 ± 0.44
DEWTVEDKVLFEQAFSFHGKSFHRIQQMLPDKTIESLVKYYYSWKKTR	0.308 ± 0.12
DEWTVEDKVLFEQAFSFHGKSFHRIQQMLPDKTINSLVKYYYSWKKTR	-0.145 ± 0.15
DEWTVEDKVLFEQAFSFHGKSFHRIQQMLPDKTIISLVKYYYSWKKTR	-0.062 ± 0.046
DEWTVEDKVLFEQAFSFHGKSFHRIQQMLPDKTIDSLVKYYYSWKKTR	-0.391 ± 0.28
DEWTVEDKVLFEQAFSFHGKSFHRIQQMLPDKTIWSLVKYYYSWKKTR	-0.439 ± 0.12
DEWTVEDKVLFEQAFSFHGKSFHRIQQMLPDKTIVSLVKYYYSWKKTR	-0.545 ± 0.11
DEWTVEDKVLFEQAFSFHGKSFHRIQQMLPDKTILSLVKYYYSWKKTR	-0.113 ± 0.061
DEWTVEDKVLFEQAFSFHGKSFHRIQQMLPDKTITSLVKYYYSWKKTR	0.073 ± 0.1
DEWTVEDKVLFEQAFSFHGKSFHRIQQMLPDKTIGSLVKYYYSWKKTR	0.045 ± 0.044
DEWTVEDKVLFEQAFSFHGKSFHRIQQMLPDKTIKSLVKYYYSWKKTR	-0.124 ± 0.14
DEWTVEDKVLFEQAFSFHGKSFHRIQQMLPDKTIHSLVKYYYSWKKTR	-0.214 ± 0.14
DEWTVEDKVLFEQAFSFHGKSFHRIQQMLPDKTIMSLVKYYYSWKKTR	-0.203 ± 0.11
DEWTVEDKVLFEQAFSFHGKSFHRIQQMLPDKTICSLVKYYYSWKKTR	-0.401 ± 0.12
DEWTVEDKVLFEQAFSFHGKSFHRIQQMLPDKTIFSLVKYYYSWKKTR	-0.098 ± 0.069
DEWTVEDKVLFEQAFSFHGKSFHRIQQMLPDKTIYSLVKYYYSWKKTR	-0.451 ± 0.23
DEWTVEDKVLFEQAFSFHGKSFHRIQQMLPDKTIPSLVKYYYSWKKTR	-0.345 ± 0.17
DEWTVEDKVLFEQAFSFHGKSFHRIQQMLPDKTIRSLVKYYYSWKKTR	-0.016 ± 0.047
DEWTVEDKVLFEQAFSFHGKSFHRIQQMLPDKTIQSLVKYYYSWKKTR	-0.258 ± 0.15
